According to paper doi:10.1101/2023.11.01.565197 (bioRxiv, 2023):

Biological target: the molecule itself
Test: cryo-EM structure

B1: rabbit Slo1 (KCNMA1) (natural protein)
chain: not shown
stoichiometry N: 4
